Measurements reported in article PMC9907207.

Target: D614G VFLIP spike trimer (SARS-CoV-2)
Assay: cryo-EM structure

D614G VFLIP spike trimer (natural protein)
stoichiometry N: 3
